{
  "source": "patent US10648979B2",
  "about": "“Molecular probes for detecting gram-negative bacteria in vitro and in vivo” (priority 2014, dated 2020)",
  "key": {"[1]": {"tested_on": "Pseudomonas aueriginosa (PA)", "from_the_text": "(§1) FIG. 3A: Elastase dependant bacterial labelling scheme. The fluorophore on the bacterial binding component is quenched by a different fluorophore of a longer wavelength meaning that no fluorescence is seen upon binding to bacteria. Cleavage of the elastase specific sequence AAPV liberates the bacterial binding component (PV-NBD-UBI) from the quencher (TAMRA). TAMRA reports the presence of activated neutrophils by endocytic uptake.\n(§2) FIG. 3B: Elastase dependant bacterial labelling in vitro.\nIn a second example, the probe comprises carboxytetramethylrhodamine (TAMRA, acting as a fluorescent quencher) connected to NBD and polymyxin (acting as the probe element) via the peptide sequence AAPV (acting as the linker). Accordingly, the NBD fluorescence is quenched by the TAMRA to give rise to a fluorescent signal from TAMRA (i.e. the TAMRA is accepting the energy absorbed by the NBD and is itself fluorescing, TAMRA and NBD are acting as a FRET pair). Accordingly, whether or not the polymyxin has bound to any bacteria that may be present, only a signal from the TAMRA is observed."}, "activated neutrophils": {"tested_on": "activated neutrophils", "conditions": "TAMRA signal (red)", "from_the_text": "as §1, §2"}, "elastase": {"target": "elastase (Homo sapiens, UniProt P08246)", "sequence (P08246 30-247 limits assumed)": "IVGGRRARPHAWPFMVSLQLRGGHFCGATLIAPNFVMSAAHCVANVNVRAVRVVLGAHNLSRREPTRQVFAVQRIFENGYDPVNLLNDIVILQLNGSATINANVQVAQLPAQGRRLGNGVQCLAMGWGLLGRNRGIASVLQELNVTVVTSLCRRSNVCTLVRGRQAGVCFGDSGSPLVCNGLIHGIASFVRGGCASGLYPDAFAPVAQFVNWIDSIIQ", "conditions": "ex 525, Em 580"}, "[2]": {"tested_on": "Methicillin sensitive Staphylococcus aureus (MSSA)", "assay": "Elastase dependant bacterial labelling in co-culture of bacteria and isolated human neutrophils (confocal)", "type": "cell-based", "from_the_text": "FIG. 2A: Elastase dependant bacterial labelling scheme.\nFIG. 2B: Elastase dependant bacterial labelling in vitro.\nA first example of elastase sensitive probes (shown schematically in FIG. 2A) comprises methyl red (acting as a dark quencher) connected via the peptide sequence AAPV (acting as the linker) to 7-nitrobenz-2-oxa-1,3-diazole (NBD) and the ubiquicidin fragment UBI29-41 (together acting as the probe element). Accordingly, the NBD fluorescence is quenched by the methyl red and no fluorescent signal will be observed (i.e. the methyl red and NBD are acting as a FRET pair) and therefore, whether or not the probe is bound to any bacteria that may be present in the target area via UBI29-41, no signal is observed using confocal microscopy.\nWhen the probe is in the presence of human neutrophil elastase (HNE), such as in inflamed tissue, HNE cleaves the peptide sequence of the linker, to thereby free the probe element from the methyl red quencher. Accordingly, the NBD fluorophore is no longer quenched and produces a fluorescent signal. In addition, due to the environmental sensitivity of the NBD, the signal produced is greatly amplified if the NBD is in a hydrophobic environment, such as within a cell membrane."}, "[3]": {"assay": "Stability in saline or BALF from patients with Acute Lung Injury (MALDI-TOF / FTMS)", "conditions": "incubated for 30 minutes", "experimental": "FIG. 16: NBD-UBIdend is stable in ALI BALF. […] NBD-PMX is stable in ALI BALF.\nSecondly we assessed stability of the probes in broncholalveolar lavage fluid (BALF) from patients with Acute Lung Injury (ALI) by Fourier Transform Mass Spectrometry (FTMS) and Matrix-Assisted Laser Desorption/Ionization Time-of-Flight Mass Spectrometry (MALDI-TOF MS) analysis. NBD-UBINle, NBD-UBIdend and NBD-PMX were incubated for 30 minutes with BALF (FIG. 16).\nIn vitro labelling was assessed on benchtop confocal in the presence of compound with bacteria and labelling was compared to NBD-UBINle which served as a reference control for bacterial labelling. […] For the ex vivo and in vivo ovine lung experiments each compound was assessed in a control lung segment (instilled with 2 ml PBS) or a bacterial segment (instilled with 2 ml of 2 optical density of bacteria). Following bacterial instillation, the compound was administered to the segment of interest and this was imaged by probe based confocal laser endomicroscopy (FCFM).\nProbe was added to saline or pooled BALF from patients with ALI incubated for 30 minutes. A ZipTip (C-18, 0.2 μL) with 5 μL MeCN (with 0.1% TFA as an additive) followed by 20 μL of H2O was washed. The ZipTip was loaded with the sample, washed and eluted into 5 μL of 80% aq. MeCN (with 0.1% TFA as an additive). The sample was analysed by MALDI-TOF (PerSeptive Biosystems Voyager DETMSTR MALDI-TOF mass spectrometer (Applied Biosystems, Foster City, Calif.))."}, "[4]": {"assay": "Rodent single dose intratracheal toxicity assessment", "type": "in vivo, Mice", "design": "Creatinine / Bilirubin / Albumin: unit not given here"}, "human erythrocytes": {"tested_on": "human erythrocytes", "assay": "Haemolysis assay", "conditions": "up to 100 μM; 0.2% Triton-X = 100%", "method": "Positive control was 0.2% Triton-X and values corrected to represent 100% haemolysis for Triton-X.\nErythrocytes were isolated from freshly drawn, anticoagulated human blood and resuspended to 20 vol % in PBS (pH 7.4). In a 96-well microtiter plate, 100 μl of erythrocyte suspension was added to 100 μl of NLLP solution in PBS (prepared by 1:2 serial dilutions) or 100 μl of PBS in the case of negative controls. One-hundred percent haemolysis wells contained 100 μl of red cell suspension with 100 μl of 0.2 vol % Triton X-100. The plate was incubated for 1 h at 37° C., and then each well was diluted with 150 μl of PBS. The plate was then centrifuged at 1,200 g for 15 min, 100 μl of the supernatant from each well was transferred to a fresh microtiter plate, and A350 was measured. Percentage of haemolysis was determined as (A−A0)/(Atotal−A0)×100, where A is the absorbance of the test well, A0 the absorbance of the negative controls, and Atotal the absorbance of 100% haemolysis wells, all at 350 nm on a Biotek plate reader."}},
  "note": "Read-outs that look alike come from different tables or passages of the source. Bridge positions count the residues as written; N and C are the ends. Square brackets hold non-standard residues; d marks the D form. Peptide text beside a SMILES is read from it. * marks the point of attachment. ξ: configuration not given here. X1 = CN(C)c1ccc2c(c1)Oc1cc(N(C)C)ccc1C21OC(=O)c2ccc(C(=O)*)cc21; MethylRed = CN(C)c1ccc(/N=N/c2ccccc2C(=O)*)cc1; NBD = O=[N+]([O-])c1ccc(*)c2nonc12; dDab = NCC[C@@H](N)C(=O)O; Dab = NCC[C@H](N)C(=O)O; AEEA = NCCOCCOCC(=O)O; ξDab = NCCC(N)C(=O)O; ξK = NCCCCC(N)C(=O)O; ξV = CC(C)C(N)C(=O)O; ξP = O=C(O)C1CCCN1; ξA = CC(N)C(=O)O",
  "data": [
    {"smiles": "CC(C)C[C@@H]1NC(=O)[C@@H](Cc2ccccc2)NC(=O)[C@@H](CCN)NC(=O)C(NC(=O)[C@H](CCN)NC(=O)[C@@H](NC(=O)COCCOCCNC(=O)C(CCCCNc2ccc([N+](=O)[O-])c3nonc23)NC(=O)C(NC(=O)C2CCCN2C(=O)C(C)NC(=O)C(C)NC(=O)c2ccc3c(c2)C2(OC3=O)c3ccc(N(C)C)cc3Oc3cc(N(C)C)ccc32)C(C)C)[C@@H](C)O)CCNC(=O)[C@@H]([C@H](C)O)NC(=O)[C@H](CCN)NC(=O)[C@H](CCN)NC1=O", "note": "(some centres unmarked) [TAMRA-AAPV-NBD-PMX] (X1-[ξA][ξA][ξP][ξV][ξK](NBD)[AEEA]T[Dab][ξDab][dDab][dF]L[Dab][Dab][dT]; lactam 9-C)", "values": [
      {"measurement": "bacterial labelling", "setting": "[1]; activated neutrophils, NBD signal (green)", "result": "bacterial labelling (shown in green) in an elastase dependent manner"},
      {"measurement": "bacterial labelling", "setting": "[1]; unactivated neutrophils", "result": "no labelling in the presence of unactivated neutrophils"},
      {"measurement": "labelling of activated neutrophils", "setting": "activated neutrophils", "result": "labelling of activated neutrophils (shown in red) in an elastase independent manner"},
      {"measurement": "fluorescence of TAMRA following cleavage, with elastase inhibitor", "setting": "elastase; elastase inhibitor", "result": "inhibited with an elastase inhibitor"},
      {"measurement": "fluorescence of TAMRA following cleavage", "setting": "elastase; with elastase", "result": "increase in fluorescence of TAMRA-AA (cleaved compound) compared to TAMRA-AAPV-NBD-PMX in an elastase dependent manner"}
    ]},
    {"smiles": "CSCCC(NC(=O)C(CCCNC(=N)N)NC(=O)C(CCCNC(=N)N)NC(=O)C(CCCCN)NC(=O)C(C)NC(=O)C(CCCNC(=N)N)NC(=O)CNC(=O)C(NC(=O)COCCOCCNC(=O)C(CCCCNc1ccc([N+](=O)[O-])c2nonc12)NC(=O)C(NC(=O)C1CCCN1C(=O)C(C)NC(=O)C(C)NC(=O)c1ccccc1/N=N/c1ccc(N(C)C)cc1)C(C)C)C(C)O)C(=O)NC(CCC(N)=O)C(=O)NC(Cc1ccc(O)cc1)C(=O)NC(CC(N)=O)C(=O)NC(CCCNC(=N)N)C(=O)NC(CCCNC(=N)N)C(N)=O", "note": "(centres unmarked) [Example 1] (MethylRed-AAPVK(NBD)[AEEA]TGRAKRRMQYNRR-NH2; configuration not given here)", "values": [
      {"measurement": "bacterial labelling in co-culture of bacteria and neutrophils", "setting": "[2]; confocal, neutrophil derived HNE present", "result": "ability of the probe to be cleaved by neutrophil derived HNE and to label bacteria"},
      {"measurement": "bacterial labelling with elastase inhibitor", "setting": "[2]; elastase inhibitor sivelestat added to the medium", "result": "no labelling was observed"}
    ]},
    {"smiles": "CCCC[C@H](NC(=O)[C@H](CCCNC(=N)N)NC(=O)[C@H](CCCNC(=N)N)NC(=O)[C@H](CCCCN)NC(=O)[C@H](C)NC(=O)[C@H](CCCNC(=N)N)NC(=O)CNC(=O)[C@@H](NC(=O)COCCOCCNc1ccc([N+](=O)[O-])c2nonc12)[C@@H](C)O)C(=O)N[C@@H](CCC(N)=O)C(=O)N[C@@H](Cc1ccc(O)cc1)C(=O)N[C@@H](CC(N)=O)C(=O)N[C@@H](CCCNC(=N)N)C(=O)N[C@@H](CCCNC(=N)N)C(=O)NCCOCCOCC(=O)NCCCOCC(COCCCNC(=O)COCCOCCNC(=O)[C@H](CCCNC(=N)N)NC(=O)[C@H](CCCNC(=N)N)NC(=O)[C@H](CC(N)=O)NC(=O)[C@H](Cc1ccc(O)cc1)NC(=O)[C@H](CCC(N)=O)NC(=O)[C@H](CCCC)NC(=O)[C@H](CCCNC(=N)N)NC(=O)[C@H](CCCNC(=N)N)NC(=O)[C@H](CCCCN)NC(=O)[C@H](C)NC(=O)[C@H](CCCNC(=N)N)NC(=O)CNC(=O)[C@@H](NC(=O)COCCOCCNc1ccc([N+](=O)[O-])c2nonc12)[C@@H](C)O)(COCCCNC(=O)COCCOCCNC(=O)[C@H](CCCNC(=N)N)NC(=O)[C@H](CCCNC(=N)N)NC(=O)[C@H](CC(N)=O)NC(=O)[C@H](Cc1ccc(O)cc1)NC(=O)[C@H](CCC(N)=O)NC(=O)[C@H](CCCC)NC(=O)[C@H](CCCNC(=N)N)NC(=O)[C@H](CCCNC(=N)N)NC(=O)[C@H](CCCCN)NC(=O)[C@H](C)NC(=O)[C@H](CCCNC(=N)N)NC(=O)CNC(=O)[C@@H](NC(=O)COCCOCCNc1ccc([N+](=O)[O-])c2nonc12)[C@@H](C)O)NC(N)=O", "note": "(some centres unmarked) [NBD-UBIdend]", "values": [
      {"measurement": "stability in ALI BALF", "setting": "[3]", "result": "demonstrate stability"},
      {"measurement": "stability in saline", "setting": "[3]", "result": "readily identified in both saline and BALF incubated samples"},
      {"measurement": "ALP", "setting": "[4]; 48 hours", "result": "222.3 ± 80.3", "unit": "u/l"},
      {"measurement": "ALT", "setting": "[4]; 48 hours", "result": "24.0 ± 1.2", "unit": "u/l"},
      {"measurement": "Albumin", "setting": "[4]; 48 hours", "result": "22.3 ± 1.8"},
      {"measurement": "BALF", "setting": "[4]; 48 hours", "result": "477.1 ± 150.6", "unit": "Cells/ul"},
      {"measurement": "Bilirubin", "setting": "[4]; 48 hours", "result": "2 ± 0"},
      {"measurement": "Creatinine", "setting": "[4]; 48 hours", "result": "8.3 ± 0.7"},
      {"measurement": "Cytospin (% of Neutrophils)", "setting": "[4]; 48 hours", "result": 3.6, "unit": "%"},
      {"measurement": "Cytospin (% of Red Blood Cells)", "setting": "[4]; 48 hours", "result": 0, "unit": "%"},
      {"measurement": "PenH value", "setting": "[4]; 48 hours", "result": "0.5 ± 0.06"},
      {"measurement": "Cytospin (% of Mononuclear cells)", "setting": "[4]; 48 hours, single intratracheal 100 μg/25 g mouse", "result": 96.4, "unit": "%"},
      {"measurement": "ALP", "setting": "[4]; 14 days", "result": "227.0 ± 27.1", "unit": "u/l"},
      {"measurement": "ALT", "setting": "[4]; 14 days", "result": "28.3 ± 1.9", "unit": "u/l"},
      {"measurement": "Albumin", "setting": "[4]; 14 days", "result": "25.0 ± 1.2"},
      {"measurement": "BALF", "setting": "[4]; 14 days", "result": "342.7 ± 6.5", "unit": "Cells/ul"},
      {"measurement": "Bilirubin", "setting": "[4]; 14 days", "result": "2 ± 0"},
      {"measurement": "Creatinine", "setting": "[4]; 14 days", "result": "9.0 ± 1.5"},
      {"measurement": "Cytospin (% of Neutrophils)", "setting": "[4]; 14 days", "result": 0, "unit": "%"},
      {"measurement": "Cytospin (% of Red Blood Cells)", "setting": "[4]; 14 days", "result": 0, "unit": "%"},
      {"measurement": "PenH value", "setting": "[4]; 14 days", "result": "0.5 ± 0.04"},
      {"measurement": "Cytospin (% of Mononuclear cells)", "setting": "[4]; 14 days, single intratracheal 100 μg/25 g mouse", "result": 100, "unit": "%"},
      {"measurement": "organ toxicity (histology)", "setting": "[4]; single instillation, 48 hours and 14 days, compared to PBS control", "result": "no organ toxicity"},
      {"measurement": "toxicity", "setting": "[4]; single intratracheal 100 μg/25 g mouse, 48 hours and 14 days", "result": "no toxicity"},
      {"measurement": "red cell haemolysis", "setting": "human erythrocytes", "result": "no red cell haemolysis"}
    ]}
  ]
}
